Experimental findings from the DeepSol protein solubility set are described below.

This data set can be described thus: soluble on expression in E. coli; label from the status in PepcDB or PDB records.
With “MNSAPLLVDPSTQSATVVAETQPFGDRCMLESLIRRPFCMNPQLQTHPYDRQPTTAPRLQMMPRRDQTQNPVIAELMSTVTRVRDRKRQRDEEAMYPRRSVGLQTDTEDVSEVLDGGTRISDMKRVRREELLDQSSLDGITFETSGTNTSDEPHSQIITSNSSSLPSTSASSSSDRPRAMRSNQEMRQARRARRQRQTQHESQRMQLEHRLQQITGPVPGSEHNCMTGCPHLHQQQQQQHQQPLLHIQLNPIPPQPQTGPNSVSPTIAPGAMLRAHPLASTFPYFSLPLTQNYPVMMVLPMAAVAQQHAAAAAAVVAVAAAAAVPQPPPPPPQPTLHAPVPIRPQNNPYNLYAFRNSPINVHAPGYVGEYVELFRSQQFLFPTSERYGIDRHHMFGGLDLDLPVGASKVEIDTFTIPTVYAKKTDGEEDEDTCTVCLSSFEDGESIQKLRCNHVFHPECIYKWLDINKRCPMCREEIDRPESLRTQPGL”, the “soluble on expression in E. coli” value is “not soluble”.

Consider “MNSCWAKGKLMCEGRPASGVKVKLMESDNSFLPGFLDRDDKMASGKADSNGEFNLSGSTKEITGIEPYLAVFHDCKDGITPCQRVLRINIPKSYANWGSSAEKTFNAGNLELAGKFPGETRSCFN”, for which the “soluble on expression in E. coli” value is on record as “not soluble”.

“MNSITVRNATFTWARSDPPTLNGITFSIPEGALVAVVGQVGCGKSSLLSALLAEMDKVEGHVAIKGSVAYVPQQAWIQNDSLRENILFGCQLEEPYYRSVIQACALLPDLEILPSGDRTEIGEKGVNLSGGQKQRVSLARAVYSNADIYLFDDPLSAVDAHVGKHIFENVIGPKGMLKNKTRILVTHSMSYLPQVDVIIVMSGGKISEMGSYQELLARDGAFAEFLRTYASHHHHHH”: the “soluble on expression in E. coli” value is recorded as “soluble”.

“MNSPDIALIKTYLLTLQDNICAALAQADGHAEFTEECWVREEGGGGRSRVLVNGAVFEQAGVNFSHVSGAMLPASATAHRPELAGRSFQALGVSLVIHPLNPYLPTSHANVRFFIAEKPGEDAVWWFGGGFDLTPYYGFEEDAIHWHQVAHSLCQPFGEQIYPRYKKWCDDYFYIKHRQEARGIGGLFFDDLNSPDFMTCFNFTQAVGDGFLAAYMPIVARRKALGWGDRERQFQLYRRGRYVEFNLVWDRGTLFGLQTGGRTESILMSLPPLVRWEYNYQPEADSAEAALYRDFLPVKDWLAIKGETH”: the “soluble on expression in E. coli” value is on record as “not soluble”.

As to “MNSPGVSANFFIPLSFDATSLIKYKLSDDLLARVAASGSLRSSSCRSAVWRLVLRCLPYETSDWEISLSRSRNLYRAHKENHLIDPHDTKFSQDPEFNNPLASIEQNPWNTFFEDNDLRDIIGKDVSRTFPEIEFFQNTSIRQMMSDILLVYAKEHPFVNYRQGMHEILAPLIFVIYSDNEAFQHAKENDELKMLTVEEEDILNCLFCKEYLEQDSYNLFCSVMLEVSRWYEEPTVTESPKRPIPKEPYMRVQDSAPASRLMEDLIDIGNLLHEIDPTLAKHLSTLDIPPQLYGIRWLRLLFGRELPLHDLLFLWDVLLIDRPIAPLAKCMFVSLLVQIRHLLLSSDYGGCLQYLMRYPPIADIDSFVKLARHYRNPKKNAKPMIKSNNFSHITVAGSSHPNRTQRPQRPPAAVNSKNDGAESPSTILALAPVFQKVKNTIRDRSNTVSGPSSPRRSNEPLREPLRTPQKKDNWANEVQMMEEQVSTLQTRLNEQDMMCCQVSKALEIYAEDVRNAKSSELCAVLSQNLLELSKTLMSIKTVPVGTSPPKHSRNGISDIQPKPRDSQPIRQHNEMVDMATKRPPL”, the “soluble on expression in E. coli” value was “not soluble”.

On to “MNSQTTKDIPCFRSYLPDALRLRFEDKLTIRAIAQRLGLSHSTIHTLFQRFLASGIAWPLPDSVSFAQLDAILYANRKKELTEPQIREGSWRKERRTSYSREFKVRLAKQALQPGAVVARIAREHDINDNLLFKWKSQYEDGLLSDDDIQECMPVPVALTDTPEPTRPVTNPFWRNKHDERPEGAPGNVPRCELHLKSGVVKLFDPLTPELLRALIREMKGGIRLEHHHHHH”, for which the “soluble on expression in E. coli” value was “soluble”.

With “MNSRGLILTLGVVIAVAFAQQDSEVEREMMKRKSAYMRFGRSDGGNPMEMEKRKSAYMRFGKRSSGGDEQELVGGDDIDMEKRKSAYMRFGKRSGPQEDDMPMEKRKSAYMRFGKRSSDMEVIGNEGVDGDAHDLFKRKSAYMRFGKRSMGEEEDHDMMKRKSAYMRFGR”, the “soluble on expression in E. coli” value is on record as “not soluble”.

As for “MNSRQQTILQMVIDQGQVSVTDLAKATGVSEVTIRQDLNTLEKLSYLRRAHGFAVSLDSDDVETRMMSNYTLKRELAEFAASLVQPGETIFIENGSSNALLARTLGEQKKNVTIITVSSYIAHLLKDAPCEVILLGGVYQKKSESMVGPLTRQCIQQVHFSKAFIGIDGWQPETGFTGRDMMRTDVVNAVLEKECEAIVLTDSSKFGAVHSYSIGPVERFNRVITDSKIRASDLMHLEHSKLTIHVVDILEHHHHHH”, the “soluble on expression in E. coli” value is recorded as “soluble”.

For “MNSSKAGGCHGINDIKVKTAKPKDKPYKLADGGGMYLLINTNGSKYWRMKYRFAGKEKMLSIGVYPDVTLADAREKRSEARKLLAAGGDPGEAKKEEKIAQQMSLKNTFEAIAREWHQLKADRWSLRYRDEIIDTFEKDIFPYIGKRPIAEIKPMKLLEALRKMEKRGALEKMRKVRQRCGEVFRYAIVTGRADYNPAPDLASALATPKKVHFPFLTANELPHFLNDLAGYTGSIITKTATQIIMLTGVRTQELRFARWEDIDFETKLWEIPAEVMKMKRPHIVPLSEQVIMLFKQLEPISKHHPLVFIGRNDPRKPISKESINQVIELLGYKGRLTGHGFRHTMSTILHEQGFNSAWIEMQLAHVDKNSIRGTYNHALYLDGRREMMQWYADYIDSLSSRES”, the “soluble on expression in E. coli” value is “not soluble”.

Take “MNSSLKNLLNNKILVLDGAMGTCIQSFNLDEGDFKGSLSCTCHSNQKGNNDVLNLTKPEIIKEIHKRYLEAGADIIETNTFNATEISQKDYNMQDKIYDINFKGAKLAKEACTYYTKLNPNKPRFAAGSIGPTNRTASLSPDVENPGFRNVTFDELCNAYKHQIEALIDGGVDLLLIETIFDTLNARAAIFAAETVFENKKIKLPIIISGTIADKSGRILSGQTLDAFAESLKNENIIAIGLNCSFGAEELIPFIKRLSETQNRYISFHPNAGLPNSLGEYEELPEETASIVKKLALEGHLNIVGGCCGTTPEHIRAISSVVKGISPRKVPNLEPKTIYSGLENIKIDKNSNFINIG”: the “soluble on expression in E. coli” value was “not soluble”.

Regarding “MNTEKSEKCINVAPSGIRRMKKIHQMEIAQLFEYRRNCLGEKRTAVENVINAKVVAWNLAVVRRRHYFDLHGMTPQGAVDFVAQIVEGRRPGYIKLETGRGNHSKDNIPAIQNRLLQDFGNLSGFQIAIDPSNLGVLILSFQ”, the “soluble on expression in E. coli” value was “not soluble”.

On to “MNTGHHKVADTLIDFLHRQFPWVESKKIDFLSYCNELMEKMVSGAYLRWIRSHPASYHRVYKTFMYEESLRLEFVSFEPWLPYFEGKMKKMLEQERPDLIVCTHSFPSRILQQLKRKKVLAIPVVNVYTDFFMNSIWGKRFIDYHFVPHQEAKRELIVKHGIDERRIVVTGIPVHDTFMKAAALEHHHHHH”, for which the “soluble on expression in E. coli” value is “not soluble”.

“MNTISGTHFNYHQVCRRKLWLFSAGITMEHTSDLVYEGKLIHETTYQQRPERYQELELDGIKIDFYDAKNRVVHEVKKSNKISPAHRLQLLYYLYVLERNGVLGATGILEYPTLRKKEEVILSDIDRERIREIEQEILQIISHEDCPPVIDSGICKNCSYYEFCFSGEEQ”: the “soluble on expression in E. coli” value is “not soluble”.

For “MNTMNSVLKYKELALYGGSFDPLHKAHLAIIEQTLELLPSAKLIVLPAYQNPFKKPCFLDAQTRFKELERALKGIDRVLLSDFEIKQERAVPTIESVLHFQKLYHPQTLYLVIGADCLRHLSSWTNAKELLKRVELVVFERIGYEEIQFKGHYHPLKGIDAPISSSAIRASLGV”, the “soluble on expression in E. coli” value is “not soluble”.

Turning to “MNTRQLLSVGIDIGTTTTQVIFSRLELVNRAAVSQVPRYEFIKRDISWQSPVFFTPVDKQGGLKEVELKALILAQYQAAGIAPESVDSGAIIITGESAKTRNARPAVMALSQSLGDFVVASAGPHLESVIAGHGAGAQSLSEQRMCRVLNIDIGGGTSNYALFDAGKVSGTACLNVGGRLLETDAQGRVVYAHQPGQMIIDEVFGSGTDARALAAAQLGQVARRMADLIVEVITGALSPLAQSLMQTGLLPADITPEVITLSGGVGECYRNQPADPFCFSDIGPLLATALHEHPRLREMNVQFPAQTVRATVIGAGAHTLSLSGSTIWLEDVQLPLRNLPVAIPQDDADLVNAWRQALLQLDLDPQTDAYVLALPATLPVRYAALLTVINALTAFVARYPNPHPLLVVAEQDFGKALGMLLRPQLPQLPLAVIDEVVVRAGDYIDIGTPLFGGSVVPVTVKSLAFPS”, the “soluble on expression in E. coli” value is “not soluble”.

For the sequence “MNVEKLKKMKGKEKIVMVTAYDAPSARIARDAGIDVILVGDSLGNNVLGYENTIPVTMEEMLIHVAAVKRGAPDAFIVADMPFLSYQTSVEKAVENAGKFLKVGANAVKIEGGEEFGELVQKLVESGIPVMGHIGLTPQFVNRFGGYRVQGKTEKNREYLLRSARELEKRGAFAIVLELVVEEVAKEITESVSIPTIGIGSGRFCDGQVLVWHDLLGLNPDFAPRFSKKYANLYEVILKALQEFRREVKKGLFPTEEHSFTDKSKGGVSS”, the “soluble on expression in E. coli” value was “soluble”.

Turning to “MNVKEVVTEEQLHDVLPVLQQLRTKLSKEETSSLFRNMKEENYKLFSLRNEDDEVVSLAGVAICTNFYNKKHVFVYDLVTAEAHRSKRHGKVLLSYIENWGKENECESIVLTSAFSRIDAHRFYEREGYDKVSYSFHKEL”, the “soluble on expression in E. coli” value is given as “not soluble”.

In the case of “MNVKSRQQENAEATREALLESALSAFIEHGYGGVSIDAIAREARVTKGAFYHHFGSKQELLAECYERQVRTIAEDLDRVPAHVDKWAEAAALAEAFIDSVMARGKRQLSLQEVITVVGWERWKRIDSRHTLRYVGRLVDELAASGELKDYRRETLVGQLYGFLTQAAMSLRDARNKRQAANEVKAIIRDFLYSLRRG”, the “soluble on expression in E. coli” value was “not soluble”.

In the case of “MNVQETYLKELKARGYQPDEAQQRAVDRLQLCYDEWVAYKARRSSALRKLLVRPELPRGVYMWGGVGRGKSFLMDAFYSCVPVVRKTRLHFHEFMREVHRQLEELRGRADPLDELARRIAKRYRLICFDEFHVSDVADAMILHRLLDQLFANGVQFVMTSNYRPDLLYPDGLHRDRVLPAIALLQEKLDVLNVDAGIDYRKRAMEQVQAYHTPLGAQANSALRDAFAAVAEAPDESPILHIEHREIRAQRKAGGVVWFDFATLCGGPRSQNDYLEIAARFHTVILADVPKMTPRMASEARRFTWLIDVLYDHKVKLLMSAEVPADALYTEGQMANEFHRTVSRIIEMQSREYLEAPRRAVDTTLTLEHHHHHH”, the “soluble on expression in E. coli” value is on record as “not soluble”.

On to “MNVTVAPQDETLSARAGRVATIAAKHADDVDVTGRFPQEAVDALRRERLLGIQVPSSLGGEGASIQEIADICARLGQACSATAMIFAMHHIKLSSLVEHGVDSTWHPGFMRRVAGEQLLLGSATTEGGIGGNLRNSICAIEVEGDSCRLEKDATVISYGSNADAILITSRAHKDAAPADQVMTVFLKNQYTLEKTHVWDTLGMRGTCSDGFLFRGEAPAAQIFPKPFAEIAAQSMLASSHLLWSAVWYGIASDAVLRAQSFVRAAARKSPGTAPPGAIRLAEVSTKLQVVKSNIIAGIKAYEDTKSDPEKLMSMAFAVAMNNVKICSSETILEIIDHAMLVCGIMGYKNGTPYSLGRHLRDAHSARLMISNDRILGNSANLLLVHRQDTSLLG”, for which the “soluble on expression in E. coli” value is on record as “soluble”.

With “MNWYEKLSEYFPIEEMKSKAHMEALLKERSDIYHKDEGKHHILMFAEFDSFIFVDYLYVSKDARGQGLGGKLIAKLKKKNKPILLEVEPVDEDDTDTEKRLRFYQREHFKHAQSIGYRRRSLATNEVNKIEILYWSPKTESEEEILEAMKQTYENIHTYKDEKWYGESYEKTDEVLEIIDEEKQKNIFDQLS”, the “soluble on expression in E. coli” value is given as “not soluble”.
